# T1: human ferroportin (human, UniProt Q9NP59 1-571)
# T1 sequence: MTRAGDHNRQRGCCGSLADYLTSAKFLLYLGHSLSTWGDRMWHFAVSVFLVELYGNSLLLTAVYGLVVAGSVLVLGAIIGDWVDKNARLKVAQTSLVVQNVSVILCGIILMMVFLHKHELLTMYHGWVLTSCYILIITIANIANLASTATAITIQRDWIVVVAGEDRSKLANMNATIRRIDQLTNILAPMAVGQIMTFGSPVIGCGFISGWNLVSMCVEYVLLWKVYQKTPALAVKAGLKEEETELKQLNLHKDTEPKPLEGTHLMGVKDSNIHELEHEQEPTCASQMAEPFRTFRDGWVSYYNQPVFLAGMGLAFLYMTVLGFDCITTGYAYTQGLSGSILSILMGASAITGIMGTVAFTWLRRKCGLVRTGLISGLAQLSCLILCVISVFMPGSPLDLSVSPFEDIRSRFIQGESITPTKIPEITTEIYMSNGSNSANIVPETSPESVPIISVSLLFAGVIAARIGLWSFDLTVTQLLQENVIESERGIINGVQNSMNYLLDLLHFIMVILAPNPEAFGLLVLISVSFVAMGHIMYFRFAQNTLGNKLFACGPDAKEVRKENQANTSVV
# T2: ferroportin-V5 (human, UniProt Q9NP59 1-571)
# T2 sequence: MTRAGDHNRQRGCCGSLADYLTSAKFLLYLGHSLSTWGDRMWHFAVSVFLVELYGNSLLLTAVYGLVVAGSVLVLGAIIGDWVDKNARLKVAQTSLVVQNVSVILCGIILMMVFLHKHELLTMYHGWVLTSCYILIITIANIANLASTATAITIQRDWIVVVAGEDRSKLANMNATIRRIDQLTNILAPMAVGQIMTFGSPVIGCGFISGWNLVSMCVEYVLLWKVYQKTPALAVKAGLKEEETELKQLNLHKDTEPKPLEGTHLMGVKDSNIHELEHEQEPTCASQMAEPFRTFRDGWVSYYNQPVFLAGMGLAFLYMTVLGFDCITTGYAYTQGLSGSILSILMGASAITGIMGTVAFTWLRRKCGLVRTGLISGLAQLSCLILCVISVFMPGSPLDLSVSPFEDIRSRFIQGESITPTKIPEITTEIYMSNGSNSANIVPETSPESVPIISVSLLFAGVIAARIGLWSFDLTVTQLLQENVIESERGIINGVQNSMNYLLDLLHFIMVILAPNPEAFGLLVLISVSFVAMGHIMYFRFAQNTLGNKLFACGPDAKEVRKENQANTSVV
# T3: ferroportin fragment TEIYMSNGSNSA (amino acids 428-439 of SEQ ID NO: 16) (human)
# T3 construct: Stretch covered by several overlapping 10-mers of the PepSpot array; 12 residues as printed
# T3 peptide: TEIYMSNGSNSA
# T4: ferroportin fragment AFLYMTVLGF (amino acids 315-324 of SEQ ID NO: 16) (human)
# T4 construct: PepSpot array of overlapping 10-mers on cellulose membrane
# T4 peptide: AFLYMTVLGF
# T5: ferroportin peptide Fc conjugate 2 (Peptide 2: ITIQRDWIVVVAGEDRSKLANMNATIRRIDQL, amino acids 152-183 of SEQ … (human))
# T5 construct: not shown: Fc moiety
# T5 chain: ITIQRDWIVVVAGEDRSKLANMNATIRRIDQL
# T6: ferroportin peptide Fc conjugate 5 (Peptide 5: AQNTLGNKLFACGPDAKEVRKENQANTSVV, amino acids 542-571 of SEQ ID … (human))
# T6 construct: not shown: Fc moiety
# T6 chain: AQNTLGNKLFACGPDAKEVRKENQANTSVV
# T7: ferroportin peptide sequence ANIVPETSPES (residues 439-449 of SEQ ID NO: 16) (human)
# T7 peptide: ANIVPETSPES
# T8: ferroportin fragment YHGWVLTSCY (amino acids 124-133 of SEQ ID NO: 16) (human)
# T8 construct: PepSpot array of overlapping 10-mers on cellulose membrane
# T8 peptide: YHGWVLTSCY
# T9: ferroportin fragment RDGWVSYYNQ (amino acids 296-305 of SEQ ID NO: 16) (human)
# T9 construct: PepSpot array of overlapping 10-mers on cellulose membrane
# T9 peptide: RDGWVSYYNQ
# T10: ferroportin fragment SITPTKIPEI (amino acids 417-426 of SEQ ID NO: 16) (human)
# T10 construct: PepSpot array of overlapping 10-mers on cellulose membrane
# T10 peptide: SITPTKIPEI
# T11: ferroportin fragment ITTEIYMSNGSNS (amino acids 426-438 of SEQ ID NO: 16) (human)
# T11 construct: Stretch covered by several overlapping 10-mers of the PepSpot array; 13 residues as printed
# T11 peptide: ITTEIYMSNGSNS
# How the values were obtained:
# [1] = target: T1, human ferroportin; assay: cell-based or functional assay
# [2] = target: T2, ferroportin-V5; assay: cell-based or functional assay
# [3] = target: T3, ferroportin fragment TEIYMSNGSNSA …; assay: PepSpot peptide array, 1 ug/mL antibody
# Excerpt: (§1) The PepSpot technique (Heiskanen et al., Virology, 262:321-332, 1999) was used to identify the binding epitopes on ferroportin for human antibodies 37A2, 37B9, 37C8, 37G8, 38A4, 38C8, 38D2, 38E3 and 38G6. Briefly, an array of overlapping 10-mer peptides was synthesized on a cellulose membrane by a solid phase peptide synthesis spotting method. These peptide sequences were derived from amino acids 1-571 of SEQ ID NO: 16. The array was then soaked in 0.05% Tween-20/PBS (PBS-T), blocked with 5% BSA in PBS-T for 3 hours at room temperature and subsequently washed three times with PBS-T. The prepared array was then incubated for 90 minutes at room temperature with 1 μg/mL solution of antibodies 37A2, 37B9, 37C8, 37G8, 38A4, 38C8, 38D2, 38E3 or 38G6 in 5% nonfat dry milk. After binding, the membrane was washed three times with PBS-T and subsequently incubated for 1 hour at room temperature with a goat anti-human light chain antibody conjugated to horseradish peroxidase diluted 1:50,000 in 5% nonfat dry milk. The membrane was then washed three times with PBS-T and any binding was determined using chemiluminescence detection on X-ray film.
# (§2) Antibodies 37A2, 37B9, 37C8, 37G8, 38A4, 38C8, 38D2, 38E3 and 38G6 bound to epitopes within, overlapping or near loops 1, 2, 3 and 4 of the ferroportin sequence set forth in FIG. 1A.
# [4] = target: T4, ferroportin fragment AFLYMTVLGF (amino …); assay: PepSpot peptide array, 1 ug/mL antibody
# Excerpt: as §1, §2
# [5] = target: T5, ferroportin peptide Fc conjugate 2 …; assay: Western blot of peptide-Fc conjugates
# Method: (§3) 31A5 was then tested by Western analysis for its ability to recognize a panel of ferroportin peptide-Fc conjugates, where the peptide moiety was derived from different, non-overlapping regions of the ferroportin sequence. 500 ng of ferroportin peptide Fc conjugates 1-5 (Peptide 1: […], amino acids 75-96 of SEQ ID NO: 16; Peptide 2: […], amino acids 152-183 of SEQ ID NO: 16; Peptide 3: […], amino acids 330-338 of SEQ ID NO: 16; Peptide 4: […], amino acids 393-446 of SEQ ID NO: 16; and Peptide 5: […], amino acids: 542-571 of SEQ ID NO: 16) were run on a NuPAGE 4-12% gel, transferred to a nitrocellulose membrane and probed using […] 31A5 followed by an anti-mouse secondary antibody.
# [6] = target: T6, ferroportin peptide Fc conjugate 5 …; assay: Western blot of peptide-Fc conjugates
# Method: as §3
# [7] = target: T7, ferroportin peptide sequence …; assay: binding to 7-10 amino acid peptides immobilized on cellulose membrane
# Excerpt: None of the other ferroportin-binding antibodies bound appreciably to this peptide. The location of the 31A5 epitope was further narrowed by detecting binding to ferroportin peptides ranging in length from 7 to 10 amino acids immobilized on a cellulose membrane. […] Cysteine residue 326 of SEQ ID NO: 16 is located in a different extracellular loop from the loop containing the 31A5 epitope (i.e., loop 3 of FIG. 1A).
# [8] = target: T8, ferroportin fragment YHGWVLTSCY (amino …); assay: PepSpot peptide array, 1 ug/mL antibody
# Excerpt: as §1, §2
# [9] = target: T9, ferroportin fragment RDGWVSYYNQ (amino …); assay: PepSpot peptide array, 1 ug/mL antibody
# Excerpt: as §1, §2
# [10] = target: T10, ferroportin fragment SITPTKIPEI (amino …); assay: PepSpot peptide array, 1 ug/mL antibody
# Excerpt: as §1, §2
# [11] = target: T11, ferroportin fragment ITTEIYMSNGSNS …; assay: PepSpot peptide array, 1 ug/mL antibody
# Excerpt: as §1, §2
Binder,"decreased intracellular concentration of iron (IRE beta-lactamase reporter, 293/Fpn/BLA cells, 36 nM hepcidin), IC50 [1] [nM]","preserved ferroportin activity (ferroportin-V5 fluorescence after 37 nM hepcidin), IC50 [2] [nM]",binding result [4],further results
"antibody 38E3 (antibody, V domains shown) VH: QVQLVQSGAEVKKPGSSVKVSCKASGYTLTGYYMHWVRQAPGQGLEWMGWINPHTGGKNYAQKFQGRVTLTRDTSISTAYMELNSLRSDDTAVYYCARDPSLSVTGPSFYYYGLDVWGQGTTVTVSS VL: not shown",15,,binds,
"antibody 37B9 (antibody, V domains shown) VH: QVQLVQSGAEVKKPGSSVKVSCKASGYTLTGYYMHWVRQAPGQGLEWMGWINPHTGGKNYAQRFQGRVTLTRDTSVNTAYMELNTLRSDDTAVYYCARDPSLVVTGPSFYYYGLDVWGQGTTVTVSS VL: not shown",3.6,0.2,binds,
"antibody 37C8 (antibody, V domains shown) VH: QVQLVQSGAEVKKPGSSVKVSCKASGYTLTGYYMHWVRQAPGQGLEWMGWINPHTGGKNYAQKFQGRVTLTRDTSINTAYMELNTLRSDDTAVYYCARDPSIAVAGPSFYYYGLDVWGQGTTVTVSS VL: not shown",0.8,0.2,binds,
"anti-ferroportin antibody 31A5 (antibody, V domains shown, the ends of the mature chains (466, 239) are printed in CLM-00028; also called monoclonal 31A5; mouse anti-human ferroportin antibody) VH: QVQLQQSGAELARPGASVKLSCKASGYTFTSYGISWVKQRTGQGLEWIGEIYPRSGNAYYNEKFKVKATLTIDKSSSTAYMELRSLTSEDSAVYFCGGNYYWGQGTTLTVSS VL: not shown",30,,,binding result [5]: no binding; binding result [6]: no binding; binding result [7]: binds
"antibody 37A2 (antibody, V domains shown) VH: QVQLVESGGGVVQPGRSLRLSCAASGFTFSGYGMHWVRQAPGRGLEWVAVIWPDGTNKYYADSVKGRFTISRDNSKNKLYLQMNSLRAEDTAVYYCARGGATAVFGMNVWGQGTTVTVSS VL: SYELTQPPSVSVSPGQTARITCSGDELPKQYAYWYQQKAGQAPVMVIHKDSERPSGIPERFSGSSAGTIVTLTISGVQAEDEADYYCQSPDSRRTVIFGGGTKLTVL",4.5,2.5,,binding result [10]: binds

# Second part, led by results:
"decreased intracellular concentration of iron (IRE beta-lactamase reporter, 293/Fpn/BLA cells, 36 nM hepcidin), IC50 [1] [nM]","preserved ferroportin activity (ferroportin-V5 fluorescence after 37 nM hepcidin), IC50 [2] [nM]",binding result [4],Binder,further results
4.3,1.9,,"antibody 38G6 (antibody, V domains shown) VH: EVQVVESGGGLVQPGGSLRLSCAASGFTFSSYSVNWVRQAPGKGLEWVSYISGSSSTVHYADSVKGRFTISRDTAKNSVYLQLNSLRDEDTALYYCARWGTRQGHYFGMDVWGQGTTVTVSS VL: QPVLTQPPSASASLGASVTLTCTLSSGYNNYKVDWFQQRPGRGPRFVMRVGTGGIVGSKGDGIPDRFSVLGSGLNRYLTIKNIQEEDESDYHCGADHASGNNFVYVFGTGTKVTVL",binding result [3]: binds
0.9,0.3,binds,"antibody 38C8 (antibody, V domains shown) VH: QVQLVQSGAEVKKPGSSVKVSCKASGYTLTGYYMHWVRQAPGQGLEWMGWINPHTGGKNYGQKFQGRVTLTRDTSINTAYMELNSLRSDDTAVYYCARDPSISVAGPSFYYFGLDVWGQGTTVTVSS VL: not shown",
1.6,0.8,binds,"antibody 37G8 (antibody, V domains shown) VH: QVQLVQSGAEVKKPGSSVKVSCKASGYTLTGYYMHWVRQAPGQGLEWMGWINPHTGGKNYAQKFQGRVTLTRDTSINTAYMELNTLRSDDTAVYYCARDPSLVVTGPSFYYYGLDVWGQGTTVTVSS VL: DIVMTQTPLSSPVTHGQPASISCRSSQSLVHSDGNTYLSWLQQRPGQPPRLLIYKISNRLSGVPDRFSGSGTGTDFTLKISRVEAEDVGVYVCMQATQFPWTFGQGTKVEIK",
10,5.4,,"antibody 38D2 (antibody, V domains shown) VH: QVQLVQSGAEVKKPGASVKVSCKASGYTLTGYYLHWVRQAPGQELEWMGWINPFTGATDYAQKFQGRVTMTRDTSINTAHMELSRLRSDDTAVYYCARDPSLQNSYHYYVMDVWGQGTTVTVSS VL: not shown",binding result [8]: binds; binding result [9]: binds
0.4,2.8,,"antibody 38A4 (antibody, V domains shown) VH: EVQLLESGGGLVQPGGSLRLSCAASGFTFSSFAMTWVRQAPGKGLEWVSAIGGSGRNTYYADSVKGRFTISRDNSKNTLYLQMSSLRAEDTAVYYCAKEGAMARPPRGLDVWGQGTTVTVSS VL: not shown",binding result [11]: binds
